# Results published in the supplement of paper PMC10567573.
# B1: MTMR15 (parent)
# chain: YVKAKKSIDKDEEFAGSSPQSSKS
# Variants of: B1
# Assay: protein stability index of a GFP-peptide fusion (GPS, HEK-293T) (PSI 1-6); higher = more stable
# Conditions: c terminus: a fixed tail appended
# 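Also: lentivirally expressed fusions sorted by FACS into six bins by GFP to DsRed ratio, PSI derived from sequencing read proportions per bin multiplied by bin number.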
row,Variant,protein stability index
1,YRKAKKSIDKDEEFAGSSPQSSKS,5.42
2,YFKAKKSIDKDEEFAGSSPQSSKS,4.74
3,YTKAKKSIDKDEEFAGSSPQSSKS,5.08
4,YLKAKKSIDKDEEFAGSSPQSSKS,4.84
5,YQKAKKSIDKDEEFAGSSPQSSKS,5.09
6,YPKAKKSIDKDEEFAGSSPQSSKS,4.76
7,YWKAKKSIDKDEEFAGSSPQSSKS,4.5
8,YGKAKKSIDKDEEFAGSSPQSSKS,5.2
9,YMKAKKSIDKDEEFAGSSPQSSKS,4.91
10,YIKAKKSIDKDEEFAGSSPQSSKS,4.23
11,YDKAKKSIDKDEEFAGSSPQSSKS,5.5
12,YAKAKKSIDKDEEFAGSSPQSSKS,5.13
13,YHKAKKSIDKDEEFAGSSPQSSKS,4.49
14,YCKAKKSIDKDEEFAGSSPQSSKS,4.52
15,YSKAKKSIDKDEEFAGSSPQSSKS,5.38
16,YEKAKKSIDKDEEFAGSSPQSSKS,5.56
17,YKKAKKSIDKDEEFAGSSPQSSKS,5.26
18,YNKAKKSIDKDEEFAGSSPQSSKS,5.16
19,YYKAKKSIDKDEEFAGSSPQSSKS,5.39
20,YVKHKKSIDKDEEFAGSSPQSSKS,3.51
21,YVKNKKSIDKDEEFAGSSPQSSKS,2.99
22,YVKEKKSIDKDEEFAGSSPQSSKS,3.54
23,YVKVKKSIDKDEEFAGSSPQSSKS,3.08
24,YVKMKKSIDKDEEFAGSSPQSSKS,3.31

row,Variant,protein stability index
1,YVKTKKSIDKDEEFAGSSPQSSKS,2.39
2,YVKLKKSIDKDEEFAGSSPQSSKS,3.04
3,YVKWKKSIDKDEEFAGSSPQSSKS,1.8
4,YVKQKKSIDKDEEFAGSSPQSSKS,3.41
5,YVKDKKSIDKDEEFAGSSPQSSKS,3.27
6,YVKIKKSIDKDEEFAGSSPQSSKS,3.24
7,YVKGKKSIDKDEEFAGSSPQSSKS,3.42
8,YVKFKKSIDKDEEFAGSSPQSSKS,2.89
9,YVKPKKSIDKDEEFAGSSPQSSKS,3.19
10,YVKCKKSIDKDEEFAGSSPQSSKS,2.97
11,YVKYKKSIDKDEEFAGSSPQSSKS,3.55
12,YVKRKKSIDKDEEFAGSSPQSSKS,3.32
13,YVKKKKSIDKDEEFAGSSPQSSKS,4.12
14,YVKSKKSIDKDEEFAGSSPQSSKS,2.45
15,YVLAKKSIDKDEEFAGSSPQSSKS,3.05
16,YVVAKKSIDKDEEFAGSSPQSSKS,3.85
17,YVYAKKSIDKDEEFAGSSPQSSKS,2.61
18,YVIAKKSIDKDEEFAGSSPQSSKS,3.38
19,YVWAKKSIDKDEEFAGSSPQSSKS,3.1
20,YVGAKKSIDKDEEFAGSSPQSSKS,2.27
21,YVHAKKSIDKDEEFAGSSPQSSKS,3.22
22,YVEAKKSIDKDEEFAGSSPQSSKS,3.48
23,YVAAKKSIDKDEEFAGSSPQSSKS,2.87
24,YVRAKKSIDKDEEFAGSSPQSSKS,2.4

row,Variant,protein stability index
1,YVNAKKSIDKDEEFAGSSPQSSKS,3.52
2,YVMAKKSIDKDEEFAGSSPQSSKS,3.28
3,YVPAKKSIDKDEEFAGSSPQSSKS,2.04
4,YVSAKKSIDKDEEFAGSSPQSSKS,2.76
5,YVQAKKSIDKDEEFAGSSPQSSKS,3.31
6,YVDAKKSIDKDEEFAGSSPQSSKS,3.96
7,YVFAKKSIDKDEEFAGSSPQSSKS,3.3
8,YVTAKKSIDKDEEFAGSSPQSSKS,2.84
9,YVCAKKSIDKDEEFAGSSPQSSKS,3.3
10,YVKAGKSIDKDEEFAGSSPQSSKS,2.9
11,YVKACKSIDKDEEFAGSSPQSSKS,2.74
12,YVKAQKSIDKDEEFAGSSPQSSKS,3.83
13,YVKATKSIDKDEEFAGSSPQSSKS,3.31
14,YVKANKSIDKDEEFAGSSPQSSKS,3.62
15,YVKAEKSIDKDEEFAGSSPQSSKS,4.21
16,YVKAHKSIDKDEEFAGSSPQSSKS,2.8
17,YVKAFKSIDKDEEFAGSSPQSSKS,2.44
18,YVKAAKSIDKDEEFAGSSPQSSKS,3
19,YVKAIKSIDKDEEFAGSSPQSSKS,2.29
20,YVKADKSIDKDEEFAGSSPQSSKS,4.22
21,YVKASKSIDKDEEFAGSSPQSSKS,3.12
22,YVKARKSIDKDEEFAGSSPQSSKS,2.73
23,YVKAVKSIDKDEEFAGSSPQSSKS,3.47
24,YVKALKSIDKDEEFAGSSPQSSKS,2.15

row,Variant,protein stability index
1,YVKAMKSIDKDEEFAGSSPQSSKS,2.6
2,YVKAWKSIDKDEEFAGSSPQSSKS,1.6
3,YVKAPKSIDKDEEFAGSSPQSSKS,2.31
4,SVKAKKSIDKDEEFAGSSPQSSKS,5.49
5,FVKAKKSIDKDEEFAGSSPQSSKS,2.79
6,CVKAKKSIDKDEEFAGSSPQSSKS,5.51
7,KVKAKKSIDKDEEFAGSSPQSSKS,5.15
8,GVKAKKSIDKDEEFAGSSPQSSKS,5.7
9,IVKAKKSIDKDEEFAGSSPQSSKS,5.52
10,AVKAKKSIDKDEEFAGSSPQSSKS,5.37
11,WVKAKKSIDKDEEFAGSSPQSSKS,4.66
12,NVKAKKSIDKDEEFAGSSPQSSKS,5.4
13,VVKAKKSIDKDEEFAGSSPQSSKS,5.29
14,LVKAKKSIDKDEEFAGSSPQSSKS,5.14
15,DVKAKKSIDKDEEFAGSSPQSSKS,5.62
16,RVKAKKSIDKDEEFAGSSPQSSKS,5.62
17,TVKAKKSIDKDEEFAGSSPQSSKS,5.69
18,EVKAKKSIDKDEEFAGSSPQSSKS,5.82
19,QVKAKKSIDKDEEFAGSSPQSSKS,5.48
20,HVKAKKSIDKDEEFAGSSPQSSKS,5.11
21,MVKAKKSIDKDEEFAGSSPQSSKS,5.01
22,PVKAKKSIDKDEEFAGSSPQSSKS,5.19
